Where a chain is given by its changes, count along the chain named.
B1: FSI-174 (antibody, human IgG1, V domains shown)
VH: QVQLVQSGAEVKKPGASVKVSCKASGYTFTSYNMHWVRQAPGQGLEWMGVIYSGNGDTSYAQKFQGRVTITADKSTSTAYMELSSLRSEDTAVYYCARERDTRFGNWGQGTLVTVSS
VL: DIVMTQSPLSLPVTPGEPASISCRASESVDIYGQSFMHWYLQKPGQSPQLLIYLASNLESGVPDRFSGSGSGTDFTLKISRVEAEDVGVYYCQQNNEDPYTFGGGTKVEIK
B2: Dufour (antibody, V domains shown)
VH: B1 VH with A61N, Q65K, I70M, A72T, K74T, S84R, R87T, E89D, S117A
VL: EIVLTQSPSSLSASVGDRVTITCRASESVDIYGNSFMHWYQQKPGKAPKLLIYLASNLESGVPSRFSGSGSGTDFTLTISSLQPEDFATYYCQQNNEDPYTFGQGTKLEIK
notes: IgG; also called VH1/VL1; HC1 LC1
B3: AMG191 (antibody, human IgG1, V domains shown)
VH: B1 VH with A61N, Q65K
VL: DIVMTQSPDSLAVSLGERATINCRASESVDIYGNSFMHWYQQKPGQPPKLLIYLASNLESGVPDRFSGSGSGTDFTLTISSLQAEDVAVYYCQQNNEDPYTFGGGTKVEIKR
B4: Bellavista (antibody, V domains shown)
VH: B1 VH with N55Q, A61N, Q65K, I70M, A72T, K74T, S84R, R87T, E89D, S117A
VL: EIVLTQSPSSLSASVGDRVTITCRASESVDIYGESFMHWYQQKPGKAPKLLIYLASNLESGVPSRFSGSGSGTDFTLTISSLQPEDFATYYCQQNREEPYTFGQGTKLEIKR
notes: IgG; also called VH1.4/VL1.29
B5: Piz Zupo (antibody, V domains shown)
VH: B1 VH with A61N, Q65K, I70M, A72T, K74T, S84R, R87T, E89D, S117A
VL: B4 VL with E34Q, R96K
notes: IgG; also called VH1/VL1.25
B6: Eiger (antibody, V domains shown)
VH: B1 VH with A61N, Q65K, I70M, A72T, K74T, S84R, R87T, E89D, S117A
VL: B4 VL with E34S, R96K
notes: IgG; also called VH1/VL1.26
B7: Matterhorn (antibody, V domains shown)
VH: B1 VH with A61N, Q65K, I70M, A72T, K74T, S84R, R87T, E89D, S117A
VL: B4 VL with E34S, R96N, E98D
notes: IgG; also called VH1/VL1.4; VH1/LC1.4
B8: NegCtrl (antibody, V domains shown)
VH: QVQLQQSGPGLVKPSQTLSLTCAISGDSVSSNSAAWSWIRQSPGRGLEWLGRIYYRSKWYNDYAVSVKSRITINPDTSKNQFSLQLNSVTPEDTAVYYCARLDHRYHEDTVYPGMDVWGQGTLVTVSS
VL: DIELTQPPSVSVAPGQTARISCSGDNLPAYTVTWYQQKPGQAPVLVIYDDSDRPSGIPERFSGSNSGNTATLTISGTQAEDEADYYCASWDPSSGVVFGGGTKLTVL
notes: also called NegCtrl antibody (anti-chicken lysozyme); NegCtrt
B9: Castor (antibody, V domains shown)
VH: B1 VH with A61N, Q65K, I70M, A72T, K74T, S84R, R87T, E89D, S117A
VL: B4 VL with E34N, N95E, R96N, E98D
notes: IgG; also called VH1/VL1.11
B10: Finsteraarhor (antibody, V domains shown)
VH: B1 VH with A61N, Q65K, I70M, A72T, K74T, S84R, R87T, E89D, S117A
VL: B4 VL with E34N, N95R, R96N, E98D
notes: IgG; also called VH1/VL1.10; VH1/LC1.10
B11: Lagginhorn (antibody, V domains shown)
VH: B1 VH with N55S, A61N, Q65K, I70M, A72T, K74T, S84R, R87T, E89D, S117A
VL: B4 VL with R96N
notes: IgG; also called VH1.2/VL1.17
B12: Parrot (antibody, V domains shown)
VH: B1 VH with A61N, Q65K, I70M, A72T, K74T, S84R, R87T, E89D, S117A
VL: B4 VL with E34K, R96N, E98D
notes: IgG; also called VH1/VL1.5
B13: Ludwigshöhe (antibody, V domains shown)
VH: B1 VH with A61N, Q65K, I70M, A72T, K74T, S84R, R87T, E89D, S117A
VL: B4 VL with R96N, E98D
notes: IgG; also called VH1/VL1.7
B14: Schreckhorn (antibody, V domains shown)
VH: B1 VH with A61N, Q65K, I70M, A72T, K74T, S84R, R87T, E89D, S117A
VL: B4 VL with E34Y, R96N
notes: IgG; also called VH1/VL1.16
B15: Dirruhorn (antibody, V domains shown)
VH: B1 VH with A61N, Q65K, I70M, A72T, K74T, S84R, R87T, E89D, S117A
VL: B4 VL with E34Y, R96K
notes: IgG; also called VH1/VL1.18; VH1/VH1.18
B16: Breithorn (antibody, V domains shown)
VH: B1 VH with A61N, Q65K, I70M, A72T, K74T, S84R, R87T, E89D, S117A
VL: B4 VL with E34N, R96N
notes: IgG; also called VH1/VL1.15; VH1/LC1.15
B17: Grand Combin (antibody, V domains shown)
VH: B1 VH with A61N, Q65K, I70M, A72T, K74T, S84R, R87T, E89D, S117A
VL: B4 VL with E34N, N95G, R96N, E98D
notes: IgG; also called VH1/VL1.9
B18: Nadelhorn (antibody, V domains shown)
VH: B1 VH with A61N, Q65K, I70M, A72T, K74T, S84R, R87T, E89D, S117A
VL: B4 VL with E34Y, R96N, E98D
notes: IgG; also called VH1/VL1.8
B19: Dent Blanche (antibody, V domains shown)
VH: B1 VH with A61N, Q65K, I70M, A72T, K74T, S84R, R87T, E89D, S117A
VL: B4 VL with E34F, R96N, E98D
notes: IgG; also called VH1/VL1.6
B20: Zinalrithorn (antibody, V domains shown)
VH: B1 VH with A61N, Q65K, I70M, A72T, K74T, S84R, R87T, E89D, S117A
VL: B4 VL with E34N, N95H, R96N, E98D
notes: IgG; also called VH1/VL1.12
B21: Weisshorn (antibody, V domains shown)
VH: B1 VH with A61N, Q65K, I70M, A72T, K74T, S84R, R87T, E89D, S117A
VL: B4 VL with E34Q, R96N, E98D
notes: IgG; also called VH1/VL1.2; VH1/LC1.2
B22: Alphubel (antibody, V domains shown)
VH: B1 VH with A61N, Q65K, I70M, A72T, K74T, S84R, R87T, E89D, S117A
VL: B4 VL with E34N, R96K, E98D
notes: IgG; also called VH1/VL1.13
B23: Täschhorn (antibody, V domains shown)
VH: B1 VH with A61N, Q65K, I70M, A72T, K74T, S84R, R87T, E89D, S117A
VL: B4 VL with E34R, R96N, E98D
notes: IgG; also called VH1/VL1.3
B24: Weissmies (antibody, V domains shown)
VH: B1 VH with N55S, A61N, Q65K, I70M, A72T, K74T, S84R, R87T, E89D, S117A
VL: B4 VL with E34Y, R96N
notes: IgG; also called VH1.2/VL1.16

The binders below were run against T1, CD117 on wild-type cells (TF-1 cells, HSPCs, HSCs) (human, UniProt P10721 26-976) (assay: cell-based or functional assay).
T1 sequence (P10721 26-976 limits assumed): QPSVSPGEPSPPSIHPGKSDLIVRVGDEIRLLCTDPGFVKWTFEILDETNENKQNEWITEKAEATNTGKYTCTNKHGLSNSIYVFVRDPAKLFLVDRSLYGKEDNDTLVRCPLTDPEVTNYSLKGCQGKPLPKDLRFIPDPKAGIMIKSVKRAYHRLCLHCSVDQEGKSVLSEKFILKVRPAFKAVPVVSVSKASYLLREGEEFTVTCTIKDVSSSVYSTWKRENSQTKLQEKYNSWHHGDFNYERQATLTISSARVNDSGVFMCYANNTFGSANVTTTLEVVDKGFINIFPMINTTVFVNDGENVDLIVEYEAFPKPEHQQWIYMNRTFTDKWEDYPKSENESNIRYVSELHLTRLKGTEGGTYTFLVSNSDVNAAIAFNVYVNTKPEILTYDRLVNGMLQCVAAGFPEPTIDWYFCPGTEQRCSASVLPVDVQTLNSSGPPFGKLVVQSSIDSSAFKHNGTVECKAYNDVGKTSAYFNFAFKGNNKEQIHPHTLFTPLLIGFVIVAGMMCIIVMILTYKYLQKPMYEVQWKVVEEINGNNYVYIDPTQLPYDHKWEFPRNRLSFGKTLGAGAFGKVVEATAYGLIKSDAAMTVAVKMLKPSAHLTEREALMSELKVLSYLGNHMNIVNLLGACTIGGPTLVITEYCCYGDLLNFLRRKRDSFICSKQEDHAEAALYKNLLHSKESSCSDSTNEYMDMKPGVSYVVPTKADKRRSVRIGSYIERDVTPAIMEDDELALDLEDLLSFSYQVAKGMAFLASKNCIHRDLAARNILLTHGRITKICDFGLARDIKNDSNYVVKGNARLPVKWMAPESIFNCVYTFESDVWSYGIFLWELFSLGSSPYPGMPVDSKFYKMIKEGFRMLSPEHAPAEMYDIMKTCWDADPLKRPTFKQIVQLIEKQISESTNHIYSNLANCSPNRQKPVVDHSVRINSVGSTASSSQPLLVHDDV

| Binder | IC50, inhibition of SCF-dependent proliferation of TF-1 cells (CellTiter-Glo), Average | IC50, inhibition of SCF-dependent proliferation of TF-1 cells (CellTiter-Glo), Experiment #1 | IC50, inhibition of SCF-dependent proliferation of TF-1 cells (CellTiter-Glo), Experiment #2 |
| --- | --- | --- | --- |
| B1 | 0.0473 µg/mL | 0.0387 µg/mL | 0.056 µg/mL |
| B2 | 0.22 µg/mL | 0.12 µg/mL | 0.321 µg/mL |
| B3 | 0.208 µg/mL | 0.093 µg/mL | 0.323 µg/mL |
| B4 | 0.157 µg/mL | 0.103 µg/mL | 0.212 µg/mL |
| B5 | > 0.5 µg/mL | > 0.5 µg/mL | > 0.5 µg/mL |
| B6 | > 0.5 µg/mL | > 0.5 µg/mL | > 0.5 µg/mL |
| B7 | 0.116 µg/mL | 0.0648 µg/mL | 0.168 µg/mL |
| B8 | > 0.5 µg/mL | > 0.5 µg/mL | > 0.5 µg/mL |

Biological target: T1, CD117 on wild-type cells (TF-1 cells, …)
Assay: cell-based or functional assay
Remark: another data set of the same source

| Binder | IC50, inhibition of SCF-dependent proliferation of CD34-positive HSPCs (CellTiter-Glo) |
| --- | --- |
| B1 | 0.0253 µg/mL |
| B2 | 0.0949 µg/mL |
| B3 | 0.0954 µg/mL |
| B4 | 0.096 µg/mL |
| B5 | 0.114 µg/mL |
| B6 | 0.594 µg/mL |
| B7 | 0.0716 µg/mL |
| B8 | > 10 µg/mL |

What follows are binders tested against T2, human recombinant CD117 (c-Kit) from Sino Biological (Catalog No. 11996-H08H) (human, UniProt P10721 26-524) (assay: BLI Octet, set-up as in Example 2).
T2 construct: also called soluble antigen
Method: (§1) In the main experiment kinetic assays were performed by first capturing IgG using anti-human Fc biosensors. The mAb capture biosensors were then submerged in wells containing different concentrations of antigen (association stage) followed by a dissociation step in running buffer. To allow for double reference correction, IgG-captured sensors were dipped into wells containing only buffer and blank sensors were also dipped into wells containing the antigen. This referencing provided a means of compensating for both the natural dissociation of the capture IgG and non-specific binding of the antigen to the sensor surface. Steps were performed at 25° C. at a constant shaking of 1000 rpm. New sensors were used for each sample. Dissociation rate constants (Kd) were calculated using the ForteBio Data Analysis software. All consumables used were those recommended by ForteBio.
(§2) All samples were diluted in freshly prepared running buffer. Antibody variants were immobilized onto the surface of a series of biosensors using the capture methods described. Antigen was passed over the surface to generate a binding response. Binding data for the IgG:antigen interactions were collected at 25° C. on the biosensors. A dilution series of the antigen was used in the association step, in order to fit results globally and get the best values for ka, kd, and KD. The response data for the binding of antigen to the surface immobilized IgG were fitted to a 1:1 binding model. HC0 LC0 refers to murine SR-1.

T2 sequence (P10721 26-524 limits assumed): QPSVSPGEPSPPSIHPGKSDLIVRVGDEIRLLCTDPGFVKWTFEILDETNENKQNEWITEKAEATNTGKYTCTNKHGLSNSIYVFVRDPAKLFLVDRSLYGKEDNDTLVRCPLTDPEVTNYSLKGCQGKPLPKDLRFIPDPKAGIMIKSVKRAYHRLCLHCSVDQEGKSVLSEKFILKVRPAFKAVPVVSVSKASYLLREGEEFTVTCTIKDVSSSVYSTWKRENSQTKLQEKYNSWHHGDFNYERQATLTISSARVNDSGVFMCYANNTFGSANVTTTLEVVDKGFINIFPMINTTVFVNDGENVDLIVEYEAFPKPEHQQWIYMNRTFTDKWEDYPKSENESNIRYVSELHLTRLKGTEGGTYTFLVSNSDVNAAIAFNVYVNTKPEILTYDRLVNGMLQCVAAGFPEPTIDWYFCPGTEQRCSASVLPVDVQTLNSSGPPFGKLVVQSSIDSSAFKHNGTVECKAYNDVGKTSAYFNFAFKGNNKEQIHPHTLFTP

| Binder | Kd |
| --- | --- |
| B2 | 0.4 nM |
| B9 | 2.2 nM |
| B4 | 1.3 nM |
| B10 | 4 nM |
| B11 | 0.44 nM |
| B12 | 3.7 nM |
| B13 | 0.2 nM |
| B14 | 0.13 nM |
| B15 | 0.56 nM |
| B16 | 0.4 nM |
| B17 | 1.3 nM |
| B5 | 1.1 nM |
| B18 | 0.2 nM |
| B19 | 1.2 nM |
| B20 | 1.3 nM |
| B6 | 1.6 nM |
| B21 | 0.3 nM |
| B22 | 1.4 nM |
| B23 | 3.5 nM |
| B24 | 0.37 nM |
| B7 | 0.5 nM |

These binders were tested against T2, human recombinant CD117 (c-Kit) from … (assay: BLI Octet, IgG on anti-human Fc sensor, soluble CD117, 1:1 fit).
Method: IgG antibodies were immobilized on biosensors using suitable capture surfaces and binding of soluble antigen to immobilized antibodies was monitored by BLI (Octet). The resulting sensorgrams were analyzed using the supplied software (Fortebio). As antigen human recombinant CD117 (c-Kit) from Sino Biological was used (Catalog No. 11996-H08H, Lot #LC14SE0812). As a pre-experiment a series of experiments was performed to optimize assay parameters. The following parameters were selected:
as §1, §2

| Binder | Kd | koff | kon |
| --- | --- | --- | --- |
| B2 | 0.79 nM | 0.000397 s⁻¹ | 503000 M⁻¹ s⁻¹ |

What follows are binders tested against T1, CD117 on wild-type cells (TF-1 cells, …) (assay: flow cytometry on TF-1 wild-type cells, Fc receptors blocked, goat anti-human IgG Alexa Fluor 488 as secondary antibody).
Method: Binding of the antibodies of the present disclosure to CD117 on TF-1 cells was measured. TF-1 wild-type cells were seeded at a concentration of 100,000 cells/well. A Fc receptor blocking was performed using 25 μL TruStain FcX (BioLegend) for 15 min. Next cells are treated with various concentrations of the antibodies to be tested (0.0001-5 μg/ml). After additional 30 min cells were washed, then a secondary antibody was added to the cells (IgG (H+L) Cross-Adsorbed Goat anti-Human, Alexa Fluor® 488). After 30 min and two additional wash steps a live dead staining via 7AAD (7-aminoactinomycin D) was performed using 0.5 μg/mL 7AAD for 10 min before analyzing cells in a flow cytometer.

| Binder | binding result |
| --- | --- |
| B8 | no binding (tested: 5 ug/ml) |
